Consider 17 molecules from publication PMC11417369, “DNA sequence and chromatin differentiate sequence-specific transcription factor binding in the human malaria parasite Plasmodium falciparum”.

Sequences and labels used below:
T1: AP2-G D1 (Plasmodium falciparum, UniProt Q8I5I9 2123-2245)
T1 sequence: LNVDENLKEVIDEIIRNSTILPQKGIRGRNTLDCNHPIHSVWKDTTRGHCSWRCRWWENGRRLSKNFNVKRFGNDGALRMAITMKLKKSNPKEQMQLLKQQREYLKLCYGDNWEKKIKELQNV

B1: XGTACX_negctrl_site461 (dsDNA)
DNA 1: ATGAATTTTTCTCTACAAAAGGATATAATAAAAATA
DNA 2: TATTTTTATTATATCCTTTTGTAGAGAAAAATTCAT
B2: XGTACX_negctrl_site546 (dsDNA)
DNA 1: AGCCCTTTTTTTTTTTAGAATATTGCATAATTATAT
DNA 2: ATATAATTATGCAATATTCTAAAAAAAAAAAGGGCT
B3: XGTACX_negctrl_site187 (dsDNA)
DNA 1: AATATATATATATATATATATATTTCAATATATAAA
DNA 2: TTTATATATTGAAATATATATATATATATATATATT
B4: XGTACX_negctrl_site331 (dsDNA)
DNA 1: AAGGAATAAAATTTAGAAGACAATTTTATTTCAGTA
DNA 2: TACTGAAATAAAATTGTCTTCTAAATTTTATTCCTT
B5: XGTACX_negctrl_site395 (dsDNA)
DNA 1: TTATTAGAGATGTTAAGATATAGGGATAATTTCGAT
DNA 2: ATCGAAATTATCCCTATATCTTAACATCTCTAATAA
B6: XGTACX_negctrl_site181 (dsDNA)
DNA 1: ATTCGTAGTTTTATGAATTAATATAATAAAAATTAA
DNA 2: TTAATTTTTATTATATTAATTCATAAAACTACGAAT
B7: XGTACX_negctrl_site188 (dsDNA)
DNA 1: AAAGTATAACGGATACCATTTATGTGATTATTTTGT
DNA 2: ACAAAATAATCACATAAATGGTATCCGTTATACTTT
B8: XGTACX_negctrl_site572 (dsDNA)
DNA 1: TTAGGAAGCTCACAAAATAAAGTGAAAAGAAGAAAA
DNA 2: TTTTCTTCTTTTCACTTTATTTTGTGAGCTTCCTAA
B9: XGTACX_negctrl_site66 (dsDNA)
DNA 1: TTTTGAGAAAAAATAAAATAATAAATAAAAATACAT
DNA 2: ATGTATTTTTATTTATTATTTTATTTTTTCTCAAAA
B10: XGTACX_negctrl_site190 (dsDNA)
DNA 1: AATAGAAACATTTTACATGTATATATAATTTTTTTT
DNA 2: AAAAAAAATTATATATACATGTAAAATGTTTCTATT
B11: XGTACX_negctrl_site200 (dsDNA)
DNA 1: GTCCTTATGGATGATAAATTATTTTAAATATTCTAT
DNA 2: ATAGAATATTTAAAATAATTTATCATCCATAAGGAC
B12: XGTACX_negctrl_site448 (dsDNA)
DNA 1: ATATAAGATTACAAAAATTATGTGTAAATATTTAAT
DNA 2: ATTAAATATTTACACATAATTTTTGTAATCTTATAT
B13: XGTACX_negctrl_site224 (dsDNA)
DNA 1: TTGTTTCTTAAATTATTTATTTTATATTAAAAAAAA
DNA 2: TTTTTTTTAATATAAAATAAATAATTTAAGAAACAA
B14: XGTACX_negctrl_site614 (dsDNA)
DNA 1: TAATTCGCAAAAGAAAGAAATTAAGAAAAAGAAAAA
DNA 2: TTTTTCTTTTTCTTAATTTCTTTCTTTTGCGAATTA
B15: XGTACX_negctrl_site507 (dsDNA)
DNA 1: ATAAAAAATAAATATATACATACATACATACATATA
DNA 2: TATATGTATGTATGTATGTATATATTTATTTTTTAT
B16: XGTACX_negctrl_site268 (dsDNA)
DNA 1: AAAACAAATTTTAATGAGAATATGAAAAAAAAATAT
DNA 2: ATATTTTTTTTTCATATTCTCATTAAAATTTGTTTT
B17: XGTACX_negctrl_site421 (dsDNA)
DNA 1: TATAAGAGAAGAAGAAAAAAAAGGTTTCTATAGAAA
DNA 2: TTTCTATAGAAACCTTTTTTTTCTTCTTCTCTTATA

The series has as its target T1, AP2-G D1. Description: gcPBM; about 25 ug protein; PBS, 1% milk, 0.2 mg/ml BSA, salmon testes DNA, 0.03% Triton X-100. The conditions noted are these: tags: N-terminal GST (pGEX-4T-1), kept; label: surface-attached array probe.
As to B1, the binding signal is 9.76 ln median PBM intensity, better of two orientations.

As for B2, the binding signal is 9.79 ln median PBM intensity, better of two orientations.

As for B3, the binding signal is 9.75 ln median PBM intensity, better of two orientations.

As to B4, the binding signal is 9.81 ln median PBM intensity, better of two orientations.

B5: the binding signal is 9.76 ln median PBM intensity, better of two orientations.

On to B6, for which the binding signal was 9.77 ln median PBM intensity, better of two orientations.

Turning to B7, the binding signal was 9.78 ln median PBM intensity, better of two orientations.

Take B8: the binding signal is 9.76 ln median PBM intensity, better of two orientations.

For B9, the binding signal was 9.8 ln median PBM intensity, better of two orientations.

For B10, the binding signal is 9.8 ln median PBM intensity, better of two orientations.

As for B11, the binding signal is 9.79 ln median PBM intensity, better of two orientations.

In the case of B12, the binding signal was 9.81 ln median PBM intensity, better of two orientations.

For the molecule B13, the binding signal was 9.8 ln median PBM intensity, better of two orientations.

As for B14, the binding signal was 9.81 ln median PBM intensity, better of two orientations.

Consider B15, for which the binding signal is 9.8 ln median PBM intensity, better of two orientations.

Take B16: the binding signal is 9.74 ln median PBM intensity, better of two orientations.

On to B17, for which the binding signal was 9.78 ln median PBM intensity, better of two orientations.
